Here are results for two molecules from article PMC12145271, “A Lrp/AsnC Family Transcriptional Regulator Lrp Is Essential for the Pathogenicity of Dickeya oryzae”.

Series [1] has as its target T1, Lrp (Dickeya oryzae EC1, UniProt A0AB39ITC9 1-164).
T1 sequence: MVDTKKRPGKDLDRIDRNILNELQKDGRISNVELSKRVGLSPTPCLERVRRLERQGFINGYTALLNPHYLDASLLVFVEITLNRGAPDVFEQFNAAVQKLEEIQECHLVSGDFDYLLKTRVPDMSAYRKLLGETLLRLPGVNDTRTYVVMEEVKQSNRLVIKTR
Briefly: EMSA; 1 uM Lrp, 20 fmol probe. The conditions noted are these: protein: recombinant; tags: GST tag removed with PreScission protease (pGEX-6P-1, BamHI/EcoRI-site primers; N-terminal vector residues may remain); chain copies: 2; label: biotin. On the technique in general: A gel shift assay detects complexes by their altered migration in electrophoresis.

The target in series [2] is T1, Lrp. The experiment in a line: EMSA. The conditions noted are these: protein: recombinant; tags: GST tag removed with PreScission protease (pGEX-6P-1, BamHI/EcoRI-site primers; N-terminal vector residues may remain); chain copies: 2.

B1: PzmsA(24) (dsDNA)
DNA 1: GTGTAATTATGGGCGTGCTCCGGG
DNA 2: CCCGGAGCACGCCCATAATTACAC
Consider B1, for which the binding result in series [1] is recorded as “binds”.

B2: PzmsA(24)PM (dsDNA)
DNA 1: GTGTGAAAAGAGTGAGAGACCACG
DNA 2: CGTGGTCTCTCACTCTTTTCACAC
On to B2, for which, in series [2], the binding result is listed as “no binding”.
